Experimental findings from paper PMC11711466, “Reconstitution of human DNA licensing and the structural and functional analysis of key intermediates” are described below.

One series addresses hMCM2-7 (human, UniProt P49736;P25205;P33991;P33992;Q14566;P33993 1-904;1-808;1-863;1-734;1-821;1-719). In words: negative stain EM, in-solution loading; double hexamers; loaded by ORC1-5, ORC6, CDC6, CDT1deltaN, ATP; more than without ORC6; 25 mM HEPES-KOH pH 7.5, 250 mM KGlu, 1 mM DTT, 4 mM MgOAc, 0.1% Triton X-100, 1 mM ATP or ATPgS, 30 C; high-salt wash adds 300 mM NaCl; in-solution: HEPES-NaOH, 0.05% Triton X-100. Particulars: protein: recombinant; tags: N-terminal Twin-Strep MCM2; N-terminal 8xHis MCM4; chain copies: 2;2;2;2;2;2; blunt.

The target in a further series is hORC1-5;hCDC6 (human;human, UniProt Q13415;Q13416;Q9UBD5;O43929;O43913;Q99741 1-861;1-577;1-711;1-436;1-435;1-560, |). In words: pull-down via Strep-hORC1; CDC6 retained with ORC1-5 only with DNA; 25 mM HEPES-KOH pH 7.5, 250 mM KGlu, 1 mM DTT, 4 mM MgOAc, 0.1% Triton X-100, 1 mM ATP or ATPgS, 30 C; high-salt wash adds 300 mM NaCl; in-solution: HEPES-NaOH, 0.05% Triton X-100. Particulars: protein: recombinant;recombinant; tags: N-terminal Twin-Strep on ORC1 (removed with SUMOstar protease in some preps);GST, cleaved; copies: 1;1;1;1;1;1; blunt.

B1: 158 bp lamin B2 (dsDNA)
DNA 1: GCCTGCCGCGCATGCGCACGAGGCACCCGGCGCGTCTATACAGCGTGTTGCCGCCGGGGCGGAGCCCGGTCGCATCACGTGACGAAGAGTCAGCTTGTGCAACAGCGTCGGAGGCTCACTAGAAAAAAAAGGGCAGGGTCCCATGCATCGCCTGGGTC
DNA 2: GACCCAGGCGATGCATGGGACCCTGCCCTTTTTTTTCTAGTGAGCCTCCGACGCTGTTGCACAAGCTGACTCTTCGTCACGTGATGCGACCGGGCTCCGCCCCGGCGGCAACACGCTGTATAGACGCGCCGGGTGCCTCGTGCGCATGCGCGGCAGGC
Take B1: the binding result with hMCM2-7 is listed as “binds”.

B2: 90 bp ARS1 (dsDNA)
DNA 1: GTTATTTTACAGATTTTATGTTTAGATCTTTTATGCTTGCTTTTCAAAAGGCCTGCAGGCAAGTGCACAAACAATACTTAAATAAATACTA
DNA 2: TAGTATTTATTTAAGTATTGTTTGTGCACTTGCCTGCAGGCCTTTTGAAAAGCAAGCATAAAAGATCTAAACATAAAATCTGTAAAATAAC
With B2, in the series with hORC1-5;hCDC6, the binding result was “binds”.
